One substance from patent US20220096600A1 can be followed below.

This experiment addresses CCR5 on mouse periosteal skeletal stem cells / mouse cells in vivo (mouse) (UniProt P51682). Nature of the experiment: cell-based or functional assay.
UniProt P51682, sequence (P51682 whole entry): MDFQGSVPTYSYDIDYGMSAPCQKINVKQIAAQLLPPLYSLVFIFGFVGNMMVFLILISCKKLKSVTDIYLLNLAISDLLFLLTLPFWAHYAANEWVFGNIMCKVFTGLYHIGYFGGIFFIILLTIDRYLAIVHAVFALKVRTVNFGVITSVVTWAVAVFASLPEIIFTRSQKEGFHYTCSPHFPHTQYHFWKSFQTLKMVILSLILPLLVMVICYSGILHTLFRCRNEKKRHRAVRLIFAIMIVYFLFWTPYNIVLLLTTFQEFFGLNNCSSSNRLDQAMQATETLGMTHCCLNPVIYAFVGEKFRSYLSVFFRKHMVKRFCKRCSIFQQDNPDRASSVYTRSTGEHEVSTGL

Consider CCL5 (ligand), for which the average in vivo migration speed of Mx1+aSMA+ P-SSCs under CCL5 administration turned out to be 57 µm/h.
